These results are taken from publication PMC6698652, “Boundaries of eliminated heterochromatin of Tetrahymena are positioned by the DNA-binding protein Ltl1”.

Data set [1] deals with T1, MBP-Ltl1 (Tetrahymena thermophila) (UniProt I7MGR7).
T1 sequence: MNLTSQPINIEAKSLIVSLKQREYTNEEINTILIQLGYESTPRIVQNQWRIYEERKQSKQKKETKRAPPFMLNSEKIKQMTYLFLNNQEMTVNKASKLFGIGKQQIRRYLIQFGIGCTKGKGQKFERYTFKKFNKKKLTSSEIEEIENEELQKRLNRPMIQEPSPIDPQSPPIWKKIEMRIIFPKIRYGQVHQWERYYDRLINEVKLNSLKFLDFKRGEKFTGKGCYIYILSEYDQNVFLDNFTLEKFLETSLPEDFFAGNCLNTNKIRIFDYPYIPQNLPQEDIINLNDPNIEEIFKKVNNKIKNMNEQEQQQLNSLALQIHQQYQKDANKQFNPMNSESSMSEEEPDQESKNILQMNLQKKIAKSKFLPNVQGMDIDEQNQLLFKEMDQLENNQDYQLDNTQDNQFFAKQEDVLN
The experiment in a line: EMSA. The note with it: EMSA as in Carle et al. (ref 20), binding buffer and temperature not given; probes annealed in 10 mM Tris pH 7.5, 5% glycerol, 100 mM KCl; protein dialyzed in ….

For data set [2], the target named is T2, MBP-Ltl1 (Tetrahymena thermophila, UniProt I7MGR7 1-417).
T2 sequence: T1 sequence
Nature of the data set: EMSA; EMSA as in Carle et al. (ref 20), binding buffer and temperature not given; probes annealed in 10 mM Tris pH 7.5, 5% glycerol, 100 mM KCl; protein dialyzed in 50 mM Tris pH 7.5, 100 mM KCl, 10% glycerol, 1 mM MnSO4, 1 mM MgCl2, 1 mM ZnSO4. Particulars: protein: recombinant; MBP (pMAL fusion); label: 5' 32P; blunt. In general terms: In EMSA bound probe runs differently from free probe, usually more slowly.

The target of data set [3] is T2, MBP-Ltl1. The experiment in a line: EMSA; majority of probe in G-quadruplex form; EMSA as in Carle et al. (ref 20), binding buffer and temperature not given; probes annealed in 10 mM Tris pH 7.5, 5% glycerol, 100 mM KCl; protein dialyzed in 50 mM Tris pH 7.5, 100 mM KCl, 10% glycerol, 1 mM MnSO4, 1 mM MgCl2, 1 mM ZnSO4. Particulars: protein: recombinant; MBP (pMAL fusion); label: 5' 32P.

By Kd is commonly meant the constant that tells how readily two partners part at equilibrium.

The molecule “TTATTTGATTAATTAATTTTATTTACGGTAAAGGTTTATATATTAAGGCCACAATATAC (double strand) [D IES left flank -30/-88 ds (IESD_EMSA_probe1)]” came in with a Kd in data set [1] of 350 nM.
On the same count and under the same terms, the figure for “GAAATTAATATAATTATAATTTTAAACAGTGTAAAACCCAAAAAGCTA (double strand) [R IES left flank -40/-88 ds (R_IES_EMSA_probe2)]” is 350 nM.

B1: D IES left flank -70/-120 (IESD_EMSA_L-70/120) (dsDNA)
DNA 1: AAAATTTATATATATTTGAATCCTAAGATTCTGTCTTATTTGATTAATTAA
DNA 2: TTAATTAATCAAATAAGACAGAATCTTAGGATTCAAATATATATAAATTTT
Consider B1, for which, in the data set with MBP-Ltl1 [2], the Kd is around 43 nM.

B2: D IES right flank -67/-120 (IESD_EMSA_R-67/120) (dsDNA)
DNA 1: TTTGAATCCTAAGATTCTACTTTATTTAGCATTTTTTATATTAAGTAATTTA
DNA 2: TAAATTACTTAATATAAAAAATGCTAAATAAAGTAGAATCTTAGGATTCAAA
B2: the Kd with MBP-Ltl1 [2] is around 42.5 nM.

B3: M IES left flank G4 (M1_A5G5_FW) (structured_DNA)
DNA: TTTATTAATCAAAAAGGGGGTAAATAATAA
Consider B3, for which the Kd in the data set with MBP-Ltl1 [3] is around 350 nM.
